As a reminder, the Kd is a measure of binding affinity in units of concentration.

Our source for the Kd values is patent publication US20200317768A1 (published 2020).

Residue numbers refer to the chain shown, from its start.

Common to all, as to assay: SPR (BIACORE), captured antibody, FcgR as analyte
On the technique in general: Surface plasmon resonance follows binding to a sensor surface in real time, without labels.

The target of assay [1] is T1, cynomolgus monkey FcγRIIIaS extracellular domain, His-tagged (cynomolgus monkey, UniProt Q8SPW2 21-206 at identity 1.00)).
T1 construct: also called cyno FcγRIIIaS; cynoFcγRIIIaS; not shown: C-terminal His-tag
T1 chain: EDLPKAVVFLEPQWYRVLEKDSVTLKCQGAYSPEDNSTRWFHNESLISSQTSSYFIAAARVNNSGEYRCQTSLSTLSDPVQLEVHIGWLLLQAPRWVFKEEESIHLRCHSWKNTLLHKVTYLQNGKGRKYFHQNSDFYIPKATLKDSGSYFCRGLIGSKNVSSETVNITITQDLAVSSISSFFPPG

Assay [2] addresses T2, human FcγRIIb extracellular domain, His-tagged (human, UniProt P31994 43-217).
T2 construct: also called FcgRIIb (human); not shown: C-terminal His-tag
T2 sequence: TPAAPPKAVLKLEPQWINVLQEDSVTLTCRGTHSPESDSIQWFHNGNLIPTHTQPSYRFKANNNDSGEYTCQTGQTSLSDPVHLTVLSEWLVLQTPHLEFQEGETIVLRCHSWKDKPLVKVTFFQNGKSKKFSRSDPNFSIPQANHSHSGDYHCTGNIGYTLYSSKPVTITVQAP

In assay [3] the target is T3, cynomolgus monkey FcγRIIb extracellular domain, His-tagged (cynomolgus monkey).
T3 construct: also called cyno FcγRIIb; cynoFcγRIIb; not shown: C-terminal His-tag
T3 chain: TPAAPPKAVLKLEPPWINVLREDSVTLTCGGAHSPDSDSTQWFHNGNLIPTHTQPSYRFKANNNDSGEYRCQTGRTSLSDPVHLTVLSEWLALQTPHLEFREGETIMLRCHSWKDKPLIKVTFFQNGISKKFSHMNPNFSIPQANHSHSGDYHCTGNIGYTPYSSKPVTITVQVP

The target of assay [4] is T4, human FcγRIIIaV extracellular domain, His-tagged (human, UniProt P08637 17-208).
T4 construct: also called FcgRIIIaV; not shown: C-terminal His-tag

For assay [5], the target named is T5, cynomolgus monkey FcγRIIa1 extracellular domain, His-tagged (cynomolgus monkey).
T5 construct: also called cyno FcγRIIa1; cynoFcgRIIa1; not shown: C-terminal His-tag
T5 chain: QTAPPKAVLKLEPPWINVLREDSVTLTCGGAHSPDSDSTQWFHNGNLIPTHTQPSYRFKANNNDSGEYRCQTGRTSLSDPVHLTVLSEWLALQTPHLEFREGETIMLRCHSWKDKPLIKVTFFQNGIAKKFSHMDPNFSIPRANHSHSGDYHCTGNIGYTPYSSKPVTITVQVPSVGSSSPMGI

Assay [6] has as its target T6, cynomolgus monkey FcγRIIa2 extracellular domain, His-tagged (cynomolgus monkey).
T6 construct: also called cyno FcγRIIa2; cynoFcgRIIa2; not shown: C-terminal His-tag
T6 chain: T5 chain with P95T, T121A, I127K, A128S, K130N, D135N, R142Q

The target of assay [7] is T7, cynomolgus monkey FcγRIIa3 extracellular domain, His-tagged (cynomolgus monkey).
T7 construct: also called cyno FcγRIIa3; cynoFcgRIIa3; not shown: C-terminal His-tag
T7 chain: T5 chain with P95T, T121A, A128S, H133P, D135N

In assay [8] the target is T8, human FcγRIIaH extracellular domain, His-tagged (human, UniProt P12318 34-217).
T8 construct: also called human FcγRIIa (type H); FcgRIIaH; not shown: C-terminal His-tag
T8 sequence: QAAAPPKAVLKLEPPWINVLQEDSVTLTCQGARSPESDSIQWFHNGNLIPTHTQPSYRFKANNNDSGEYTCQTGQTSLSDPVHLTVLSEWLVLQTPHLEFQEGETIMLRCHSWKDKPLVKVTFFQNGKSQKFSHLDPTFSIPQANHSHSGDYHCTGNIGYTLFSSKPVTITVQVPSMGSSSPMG

In assay [9] the target is T9, human FcγRIIaR extracellular domain, His-tagged (human, UniProt P12318 34-217).
T9 construct: also called human FcγRIIa (type R); FcgRIIaR; not shown: C-terminal His-tag
T9 chain: T8 sequence with H134R

T4 sequence (P08637 17-208 F176V): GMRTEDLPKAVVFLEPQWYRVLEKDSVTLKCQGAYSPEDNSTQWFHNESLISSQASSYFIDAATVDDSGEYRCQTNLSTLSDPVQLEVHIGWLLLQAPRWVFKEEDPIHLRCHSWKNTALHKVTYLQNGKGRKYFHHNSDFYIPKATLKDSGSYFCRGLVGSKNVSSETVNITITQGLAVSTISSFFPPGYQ

B1: M103205H795-MY474/M103202L889-SK1 (antibody, human IgG1, kappa)
heavy: QVTLKESGPVLVKPTETLTLTCTVSGIDLSHDDISWVRQAPGKGLEWVGIISYAGSTYYASWAKGRLTISKDTSKNQVVLTMTNMDPVDTATYYCARGVPAYSHGGDLWGQGTLVTVSSASTKGPSVFPLAPSSKSTSGGTAALGCLVKDYFPEPVTVSWNSGALTSGVHTFPAVLQSSGLYSLSSVVTVPSSSLGTQTYICNVNHKPSNTKVDKKVEPKSCDKTHTCPPCPVPELLTGPSVFLFPPKPKDTLMISRTPEVTCVVVDVSDEDPEVKFNWYVDGVEVHNAKTKPREEQYNSTYRVVSVLTVLHQDWLNGKEYKCKVSNKALPKPIEKTISKAKGQPREPQVYTLPPSREEMTKNQVSLTCLVKGFYPSDIAVEWESNGQPENNYKTTPPVLDSDGSFFLYSKLTVDKSRWQQGNVFSCSVMHEALHNHYTQKSLSLSP
light: DIVMTQSPATLSLSPGERATLSCTSSQSVYHANWLSWFQQKPGQPPKLLIYWASTLAYGVPSRFSGSGSGTDFTLTISSLQPEDAATYYCAGGYGGGRYAFGQGTKVEIKRTVAAPSVFIFPPSDEQLKSGTASVVCLLNNFYPREAKVQWKVDNALQSGNSQESVTEQDSKDSTYSLSSTLTLSKADYEKHKVYACEVTHQGLSSPVTKSFNRGEC
notes: copies: 2 + 2
Take B1: the Kd in assay [1] came out at 1600 nM; in [2], 2000 nM; in assay [3], 500 nM; in [4] it was 4600 nM; in assay [5] it was 2000 nM; in assay [6], 1800 nM. Further, the figures for the Kd in [7], in assay [8] and in assay [9] were 4800 nM, 170 nM and 340 nM, respectively.

B2: M103205H795-MY476/M103202L889-SK1 (antibody, human IgG1, kappa)
heavy: B1 heavy with V233Y
light: B1 light
notes: copies: 2 + 2
As for B2, the dissociation constant (Kd) turned out to be 2000 nM in assay [1]; 1200 nM in [2]; 590 nM in [3]; 5500 nM in assay [4]; 1400 nM in assay [5]; 1300 nM in assay [6]. For the same molecule, the Kd in [7] turned out to be 2600 nM; in [8] it was 140 nM; in assay [9], 250 nM.

B3: M103205H795-MY475/M103202L889-SK1 (antibody, human IgG1, kappa)
heavy: B1 heavy with V233W
light: B1 light
notes: copies: 2 + 2
Regarding B3, the equilibrium dissociation constant (Kd) in assay [1] amounted to 1700 nM; in assay [2] it was 1100 nM; in [3], 270 nM; in assay [4], 5000 nM; in [5] it was 1000 nM; in assay [6], 1000 nM. For the same molecule, the Kd in assay [7] was found to be 2300 nM; in assay [8], 90 nM; in assay [9], 210 nM.
